The DeepSol protein solubility set

Test: soluble on expression in E. coli; label from the status in PepcDB or PDB records

Row | Sequence | soluble on expression in E. coli
1 | MAHHHHHHMAHVLQKCAHVLGISLSATGVYYAKGKMPYPATSSNEGTSSAESMGGSPGKAAKSNTVSAVKESQAATRKSKAQGNSVATAAVHTPSPPSSTEMNATNLDATSPCSSAAGPVGFFFDVGLHDLPNPPRDFDVTPSALAVDGTHSSANGAVIAVRDFVSHIPPFFVPVTEVVANMPGYTAEHLEVYLNVNSLELVTVAGERYVRLYGSFGDLSLSGSEVSEKRYAHYRPDVALVAAFEAAFEGIYDKWMPLPELLRRVGPDVTAQLPYQGPAAITYFAQMQHRFAFAVREVPTTGGGAAGALSSPQFTTEAAVLLRKPGYSGLEAHSTPTPKSFQALMSLVPGDTQVDIDVVRCQLTSEVRAELSRYYDGLEGFFAAHKPVFFVPPETPTVVMRMRYRLRTQRAKLPLEEQLRIATDARDKARIRSLRRKIAFRDDPSHPLHDPENLAKEVSKHLPRRGFVHLRIFLKRNVPEELLMYMPKRMRCFFNNYPQYFTQFEYQSAGTWCLCRPDQPLPRGVIRQNFSDGDLLRLIAEFLQQRGARAASMVHTNLPFGAQEVIRRRYGGVYFFVTRYPQYFNVVLKTDRQNVKSSAVVHLIQVPSQELSDATMAASAASLNNPNAPSHDDDDHESGDDDDDEDLDDGLD | not soluble
2 | MAHHHHHHMALRRLVKMSTTAEECAAVSELFRQYRHPNLVPLTNVLVTDEFVMGSADVIMEYKFITGAKSLNEAFINEGKATEGLLWSFACQMVSLMRAFHETSTPLRGLHWTKILFVPVSSRFYFSGVGFMDVMEPKGSAHQSAALMKHDIQSLGLLLLQLSTGNSNAKPEDFTAQPAKGYSGIFWLLVKACIDGTADVVTLCRALGERMSMEVAHQEGHADRLISQCGKEAHNGRIMRLMIKLNFVLESLHDFPEHSAEANNRYALRLFSQYVFNQVDERHRTRLDWGHVFHSLNKLDCGSEELVQLIGNDESNTILVISYRDLRDTLERAFEQLQPPPNEGDVQPFTVTVGTTSATL | not soluble
3 | MAHHHHHHMALVQSHYGSDAIHTRLNDDPPSSEEIERRRGAGCLPYSNRLVHRLVVLPVTPPSIYEGETTQSPVETQGTHNERRANERDRQRRARYASLLRSHYVPLVPFSTFTEPQERSFKLPTISKYPAARRQPQFAQSEEDYMMCGGFYPGPDQYDHRGGPRLGVMQQHTVQLERVHSRHVAPPPSRLINAPGNEDMLFPI | not soluble
4 | MAHHHHHHMAMKDAVWLGKPVDVTGEDLCSVYTSRIGGTATLFRETADYSVFRCPKCNSMNTVSLLAQIYAPLDVYDRLLYVLTCSTCSTEQSTFCFALRSQNFNPSYKNVSQTNDKGGCEDKRLLFEESADWGDGMDKGWDYDYKSVKSNTATEQRGNRSTVNEAIADDICSTEVPSSLAPPGSQPPIRGMRFPCFTLEVFEEPPKVKPKSAPFNIQLHEAQGKYGEDVVETTVLDEADEPLHEKLLRKYVERIGRVPSQCVRWGPSREPLQLSVISIVAPRCPYCGKKRRYELQLTSPIIYFLTKSNEKKHPLHFGNVLVFTCSGNCNTEAYALEYCFVEGEI | not soluble
5 | MAHHHHHHMANRTDASAIKNFGSNPQYLISNIIRSKIYDSPYWKEKCFALTSESIIDQAINLKYVGGTYGGNRKPTRFLCLILKLLQIQPDKDIIYEYIKNEDFVYLRALGIFYLRLIGKSLEVYNHLEPILFDYRKIRMRLQNGTFEKIYMDVFVDNCLILNNFLDVDFPTLTKRQVLEENNLLQRKNLEYYKALLNISSDNELFKNNEDTTHNKNKEINKNKNEYKQRDMLERHKKINKYSSEDDHNYYHKKEGNYDKNKKHNKIYNHKYNNKYDDEERRHHSDYSSDMDRKSRKKEKKRTHSKYDHKKKKEKRNYSSDSKHSFTSSEYSVQNKKEEHDKKKKKLFFLKKQKKKNYHSSSQSNHSYDENKKDELSIDKWNEIRKELGMKPLK | soluble
6 | MAHHHHHHMAPLKTQAPSNRSLLGYPLRRAAAMEMLYGGICIQHLAQPPFPLRTIQSESLPPPSLQGERDDLELEVKDSTGNVMGYRLFPVNIGIRARTESVRVRSEDCYKRFLAQKHCAAAGVPLQFPAPSSITNSNCLATPRAASHFHPPSSSLSLFTRPADSQGGDVGRTTPADVAAYHPRAWRPYQMLKPMPHNWGPAVRSSGVRGPHMQLLQERIDKKGFGWKRKSRSLWQQDISTAGFRPKRYF | not soluble
7 | MAHHHHHHMATLQVRDFDPRTATHYYHCILAGIPHPVTLQSISSAIVPDSECESVQNLEKIGCQIVPYRLHVFKETLSLKFGVVDFFIHHSTSGESANPAEVHELFLQWFGSSLTRGVMSLNSWISLGQPRELHSATPFVSALMEKCSFFDAKVVSDIEKLRTFILSKVRFDNRGLNAHANNRSRVAASEDSSLQEEQTRTDCGNDPSVEWKSVGTLSASSLDSQELAWLSRQHRQFPSIAPANEREASATWELEPVRTFLQKALTPLVEVVK | not soluble
